The text below walks through data of article doi:10.1101/447052.

In experiment [1] the target is head fiber gp14 of phage P68 (S. aureus phage P68). Briefly: cryo-EM structure.
Experiment [2] addresses portal protein gp19 of phage P68 (S. aureus phage P68). Briefly: cryo-EM structure.
In experiment [3] the target is lower collar protein gp18 of phage P68 (S. aureus phage P68). In words: cryo-EM structure.
For experiment [4], the target named is tail fiber gp17 of phage P68 (in the virion) (S. aureus phage P68). Briefly: cryo-EM structure.
In experiment [5] the target is tail fiber protein gp17 of phage P68 (protein used for crystallization) (S. aureus phage P68). Briefly: crystal structure.

Where two headings read alike, the source gives them in different places.

A word on the stoichiometry N: it is a count of units in the complex or per binding partner. As to “head fiber gp14 of phage P68 (natural protein)”, the stoichiometry N in experiment [1] amounted to 3 subunits.
Consider “inner core protein gp22 of phage P68 (natural protein)”, for which the stoichiometry N in experiment [2] (scale: inner core proteins for each portal protein) was determined as 6.
For “lower collar protein gp18 of phage P68 (natural protein)”, the stoichiometry N in experiment [3] stood at 12 subunits.
In the case of “portal protein gp19 of phage P68 (natural protein)”, the stoichiometry N in experiment [2] was determined as 12 subunits.
In experiment [4], “tail fiber gp17 of phage P68 (in the virion) (natural protein)” came in with a stoichiometry N of 3 subunits.
The substance “tail fiber protein gp17 of phage P68 (protein used for crystallization) (natural protein)” registered a stoichiometry N in experiment [5] of 3 subunits.
